In patent US20100129861:

Target: 43S complexes containing 40S subunits and eIFs 2/3/1/1A

B1: DHX29 (purified native DHX29, DExH-box helicase) (protein)
chain: MGGKNKKHKAPAAAVVRAAVSASRAKSAEAGIAGEAQSKKPVSRPATAAAAAAGSREPRVKQGPKIYSFNSTNDSSGPANLDKSILKVVINNKLEQRIIGVINEHKKQNNDKGMISGRLTAKKLQDLYMALQAFSFKTKDIEDAMTNTLLYGGDLHSALDWLCLNLSDDALPEGFSQEFEEQQPKSRPKFQSPQIQATISPPLQPKTKTYEEDPKSKPKKEEKNMEVNMKEWILRYAEQQNEEEKNENSKSLEEEEKFDPNERYLHLAAKLLDAKEQAATFKLEKNKQGQKEAQEKIRKFQREMETLEDHPVFNPAMKISHQQNERKKPPVATEGESALNFNLFEKSAAATEEEKDKKKEPHDVRNFDYTARSWTGKSPKQFLIDWVRKNLPKSPNPSFEKVPVGRYWKCRVRVIKSEDDVLVVCPTILTEDGMQAQHLGATLALYRLVKGQSVHQLLPPTYRDVWLEWSDAEKKREELNKMETNKPRDLFIAKLLNKLKQQQQQQQQHSENKRENSEDPEESWENLVSDEDFSALSLESANVEDLEPVRNLFRKLQSTPKYQKLLKERQQLPVFKHRDSIVETLKRHRVVVVAGETGSGKSTQVPHFLLEDLLLNEWEASKCNIVCTQPRRISAVSLANRVCDELGCENGPGGRNSLCGYQIRMESRACESTRLLYCTTGVLLRKLQEDGLLSNVSHVIVDEVHERSVQSDFLLIILKEILQKRSDLHLILMSATVDSEKFSTYFTHCPILRISGRSYPVEVFHLEDIIEETGFVLEKDSEYCQKFLEEEEEVTINVTSKAGGIKKYQEYIPVQTGAHADLNPFYQKYSSRTQHAILYMNPHKINLDLILELLAYLDKSPQFRNIEGAVLIFLPGLAHIQQLYDLLSNDRRFYSERYKVIALHSILSTQDQAAAFTLPPPGVRKIVLATNIAETGITIPDVVFVIDTGRTKENKYHESSQMSSLVETFVSKASALQRQGRAGRVRDGFCFRMYTRERFEGFMDYSVPEILRVPLEELCLHIMKCNLGSPEDFLSKALDPPQLQVISNAMNLLRKIGACELNEPKLTPLGQHLAALPVNVKIGKMLIFGAIFGCLDPVATLAAVMTEKSPFTTPIGRKDEADLAKSALAMADSDHLTIYNAYLGWKKARQEGGYRSEITYCRRNFLNRTSLLTLEDVKQELIKLVKAAGFSSSTTSTSWEGNRASQTLSFQEIALLKAVLVAGLYDNVGKIIYTKSVDVTEKLACIVETAQGKAQVHPSSVNRDLQTHGWLLYQEKIRYARVYLRETTLITPFPVLLFGGDIEVQHRERLLSIDGWIYFQAPVKIAVIFKQLRVLIDSVLRKKLENPKMSLENDKILQIITELIKTENN
NTPase activity: DHX29's NTPase activity was strongly stimulated by 43S complexes, whereas stimulation by single-stranded RNA was low
